Like-named read-outs stand apart in the source and are kept apart here. Blank lines part the entries; values can stand above or below the substance they belong to.
Assays:
[1] = target: human CD32a (human FcγRIIA) (human) (UniProt P12318); test: SPR
[2] = target: cynomolgus CD16 (cynomolgus) (UniProt Q8SPW2); test: SPR
[3] = target: cynomolgus CD32a (cynomolgus) (UniProt Q8SPW4); test: SPR
[4] = target: cynomolgus CD64 (cynomolgus) (UniProt Q8SPW5); test: SPR
[5] = target: human CD16a (human FcγRIIIA), F isoform (human) (UniProt P08637); test: SPR
[6] = target: human CD64 (human FcγRI) (human) (UniProt P12314); test: SPR
[7] = target: human CD16a (human FcγRIIIA), V isoform (human) (UniProt P08637); test: SPR
[8] = target: human CD32b (human FcγRIIB) (human) (UniProt P31994); test: SPR
[9] = target: cynomolgus FcRn (cynomolgus) (UniProt Q8SPV9); test: SPR
[10] = target: cynomolgus CD32b (cynomolgus) (UniProt Q8SPW3); test: SPR
[11] = target: human CD16b (human FcγRIIIB) (human) (UniProt O75015); test: SPR
[12] = target: recombinant human CD123 (Homo sapiens) (UniProt P26951); test: SPR; Biacore T200, CM5 chip, 25 °C; CD123-NKCE (0.06 µg/ml) captured on anti-human Fc chip (human antibody capture kit); NKp46 or CD123 injected at 1.56 to 100 nM in HBS-EP+; 1:1 binding model with mass transport limitation; monovalent KD
[13] = target: human NKp46 (Gln22-Asn255) (Homo sapiens) (UniProt O76036); test: as above
[14] = target: human NKp46 (Gln22-Asn255) (Homo sapiens) (UniProt O76036)
Target sequence in this assay (O76036 22-255): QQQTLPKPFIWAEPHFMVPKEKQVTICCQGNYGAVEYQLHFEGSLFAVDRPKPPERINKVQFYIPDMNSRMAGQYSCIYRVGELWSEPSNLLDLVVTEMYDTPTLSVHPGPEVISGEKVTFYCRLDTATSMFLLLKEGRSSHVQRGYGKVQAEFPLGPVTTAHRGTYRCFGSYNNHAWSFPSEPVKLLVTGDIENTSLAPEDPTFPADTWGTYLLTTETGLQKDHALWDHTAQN

[15] = target: cynomolgus NKp46 (Gln17-Asn254) (cynomolgus) (UniProt Q95JB9); test: SPR; conditions: bispecific antibody
cynomolgus CD123 = test: SPR; conditions: bispecific antibody
[16] = target: human neonatal Fc receptor (human) (UniProt P55899); test: SPR; conditions: bispecific antibody
Chain of human neonatal Fc receptor (human) (P55899 24-365): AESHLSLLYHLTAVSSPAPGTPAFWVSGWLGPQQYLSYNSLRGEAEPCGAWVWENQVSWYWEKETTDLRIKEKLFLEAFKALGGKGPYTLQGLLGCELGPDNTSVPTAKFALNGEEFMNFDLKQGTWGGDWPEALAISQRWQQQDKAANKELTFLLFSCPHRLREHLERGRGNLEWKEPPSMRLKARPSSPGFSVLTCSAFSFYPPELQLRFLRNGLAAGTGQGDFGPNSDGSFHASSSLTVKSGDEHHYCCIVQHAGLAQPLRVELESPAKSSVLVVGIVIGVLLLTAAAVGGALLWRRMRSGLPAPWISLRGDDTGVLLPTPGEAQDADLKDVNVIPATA

Chain of cynomolgus FcRn (cynomolgus) (Q8SPV9 24-365): as the sequence (P55899 24-365) above, with N39D, E44Q, G99S, S189G, S190N, L217M, S269T, V319S, L332S, V335I counted along it
Chain of human CD16a (human FcγRIIIA), F isoform (human) (P08637 17-208): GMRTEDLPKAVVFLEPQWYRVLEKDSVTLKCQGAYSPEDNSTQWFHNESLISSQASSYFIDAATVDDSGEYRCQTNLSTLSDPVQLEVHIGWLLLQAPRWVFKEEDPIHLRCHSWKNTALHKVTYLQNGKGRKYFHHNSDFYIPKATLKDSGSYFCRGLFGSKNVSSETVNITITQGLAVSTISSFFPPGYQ
Chain of human CD32a (human FcγRIIA) (human) (P12318 34-317): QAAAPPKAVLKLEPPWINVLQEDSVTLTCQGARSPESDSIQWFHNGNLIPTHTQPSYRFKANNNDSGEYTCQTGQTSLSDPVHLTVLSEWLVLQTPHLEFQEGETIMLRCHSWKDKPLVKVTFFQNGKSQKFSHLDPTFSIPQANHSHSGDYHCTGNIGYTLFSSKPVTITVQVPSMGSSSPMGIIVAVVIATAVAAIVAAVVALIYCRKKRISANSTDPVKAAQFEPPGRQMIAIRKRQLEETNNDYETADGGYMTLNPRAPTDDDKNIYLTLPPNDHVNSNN
Chain of human CD16a (human FcγRIIIA), V isoform (human) (P08637 17-208 F176V): as the sequence (P08637 17-208) above, with F160V counted along it
Chain of cynomolgus CD16 (cynomolgus) (Q8SPW2 17-254): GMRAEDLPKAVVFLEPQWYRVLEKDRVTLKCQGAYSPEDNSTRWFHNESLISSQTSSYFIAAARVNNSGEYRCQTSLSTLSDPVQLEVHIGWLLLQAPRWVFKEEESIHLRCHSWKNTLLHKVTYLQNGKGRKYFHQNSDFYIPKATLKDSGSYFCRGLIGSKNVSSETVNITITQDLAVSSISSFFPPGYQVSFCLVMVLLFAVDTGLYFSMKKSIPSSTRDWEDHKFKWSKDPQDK
Chain of human CD32b (human FcγRIIB) (human) (P31994 43-310): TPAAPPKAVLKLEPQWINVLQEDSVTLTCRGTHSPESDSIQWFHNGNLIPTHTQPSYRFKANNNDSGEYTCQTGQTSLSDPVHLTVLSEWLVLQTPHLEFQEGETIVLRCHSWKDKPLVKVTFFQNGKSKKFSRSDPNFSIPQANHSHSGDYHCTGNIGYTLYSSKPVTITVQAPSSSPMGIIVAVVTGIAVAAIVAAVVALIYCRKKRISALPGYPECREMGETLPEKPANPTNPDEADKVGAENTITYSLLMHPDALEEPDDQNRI
Chain of human CD64 (human FcγRI) (human) (P12314 16-374): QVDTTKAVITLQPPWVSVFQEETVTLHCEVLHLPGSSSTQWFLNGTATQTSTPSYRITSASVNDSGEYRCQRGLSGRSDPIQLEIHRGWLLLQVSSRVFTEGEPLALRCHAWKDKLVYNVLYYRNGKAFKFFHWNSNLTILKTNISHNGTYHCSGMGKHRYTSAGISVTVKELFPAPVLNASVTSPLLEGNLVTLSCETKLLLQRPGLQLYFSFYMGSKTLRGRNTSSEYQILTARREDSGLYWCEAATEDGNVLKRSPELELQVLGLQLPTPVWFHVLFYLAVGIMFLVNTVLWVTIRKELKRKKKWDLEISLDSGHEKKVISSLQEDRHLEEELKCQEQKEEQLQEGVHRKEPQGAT
Chain of human CD16b (human FcγRIIIB) (human) (O75015 17-200): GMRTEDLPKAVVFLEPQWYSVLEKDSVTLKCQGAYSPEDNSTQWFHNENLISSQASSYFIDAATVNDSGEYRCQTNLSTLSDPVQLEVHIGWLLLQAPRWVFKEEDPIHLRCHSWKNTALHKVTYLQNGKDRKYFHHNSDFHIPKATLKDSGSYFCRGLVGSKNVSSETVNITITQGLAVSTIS
Chain of cynomolgus NKp46 (Gln17-Asn254) (cynomolgus) (Q95JB9 17-254): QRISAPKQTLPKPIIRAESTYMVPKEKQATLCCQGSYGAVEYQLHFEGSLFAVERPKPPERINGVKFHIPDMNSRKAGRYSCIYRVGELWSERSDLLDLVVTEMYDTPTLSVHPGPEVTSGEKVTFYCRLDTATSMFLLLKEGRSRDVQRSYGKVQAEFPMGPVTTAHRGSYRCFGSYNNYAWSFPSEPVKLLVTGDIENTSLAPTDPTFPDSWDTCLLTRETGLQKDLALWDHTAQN

Kd [1]: 1570 nM
Kd [2]: 580 nM
Kd [3]: 6340 nM
Kd [4]: 18 nM
Kd [5]: 2820 nM
Kd [6]: 0.2 nM
Kd [7]: 575 nM
Kd [8]: 4230 nM
Kd [9]: 237 nM
Kd [10]: 2320 nM
Kd [11]: 7540 nM
Substance: Human IgG1 control

Kd [12]: 0.4 nM
Kd [13]: 16.6 nM
Substance: CD123-NKCE (trifunctional NKp46-CD16a-NK cell engager targeting CD123) (bispecific antibody)
NK cell-mediated cytotoxicity (Cr-51 release) against MOLM-13 cells with NK cells from healthy donors, geometric mean EC50; NKp46 and CD16a coengaged [14]: 0.0042 nM
NK cell-mediated cytotoxicity (Cr-51 release) against MOLM-13 cells with NK cells from healthy donors, mean observed maximum specific lysis; NKp46 and CD16a coengaged [14]: 71%

Kd ([1]; bispecific antibody): 1220 nM
Kd ([2]; bispecific antibody): 466 nM
Kd ([3]; bispecific antibody): 5180 nM
Kd ([4]; bispecific antibody): 12 nM
Kd ([5]; bispecific antibody): 2610 nM
Kd [15]: 29 nM
Kd ([6]; bispecific antibody): 0.2 nM
Kd (cynomolgus CD123): 1.23 nM
Kd ([7]; bispecific antibody): 462 nM
Kd ([8]; bispecific antibody): 3200 nM
Kd [16]: 109 nM
Kd ([9]; bispecific antibody): 282 nM
Kd ([10]; bispecific antibody): 1890 nM
Kd ([11]; bispecific antibody): 6690 nM
Substance: CD123-NKCE (trifunctional NKp46-CD16a-NK cell engager targeting CD123)

Source: PMC10497414
